What was measured:
[1] = target: T1, GDF11 (UniProt O95390 299-407); experiment: Biacore SPR; ligand coupled to the chip, receptor-Fc flowed over (data reproduced from WO2006/012627)
T1 construct: also called growth and differentiation factor-11; BMP11
T1 sequence (looked up): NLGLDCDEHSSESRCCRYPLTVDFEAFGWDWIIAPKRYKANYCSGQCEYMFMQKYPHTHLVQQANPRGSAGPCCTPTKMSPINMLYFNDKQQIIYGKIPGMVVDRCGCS

[2] = target: T2, activin A (UniProt P08476 311-426); experiment: as above
T2 construct: also called ActA
T2 sequence (looked up): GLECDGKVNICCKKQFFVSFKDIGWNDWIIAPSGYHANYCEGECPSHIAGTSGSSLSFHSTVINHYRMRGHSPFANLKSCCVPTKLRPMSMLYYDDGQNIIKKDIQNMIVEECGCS

Kd [1]: 260 nM | Kd [2]: 180 nM
B1: Soluble ActRIIB-Fc WT (64A) (Fc fusion, not shown: a dimerising Fc or GST)
chain: GRGEAETRECIYYNANWELERTNQSGLERCEGEQDKRLHCYASWANSSGTIELVKKGCWLDDFNCYDRQECVATEENPQVYFCCCEGNFCNERFTHLPEA
notes: Data reproduced from WO2006/012627
